{
  "source": "paper PMC2659760",
  "key": {"[1]": {"substrate": "COc1ccc2cc(CN)ccc2c1", "experiment": "Substrate activity with BPAO", "type": "biochemical, bovine", "settings": "other: UV-vis spectrophotometry, pH 7.2 phosphate buffer, 30 °C"}, "[2]": {"substrate": "NCc1ccccc1", "experiment": "Substrate activity with BPAO", "type": "biochemical, bovine", "settings": "other: UV-vis spectrophotometry, pH 7.2 phosphate buffer, 30 °C"}},
  "data": [
    {"protein": "bovine plasma amine oxidase (BPAO) (Bos taurus) (protein) REEGGVGSEEGVGKQCHPSLPPRCPSRSPSDQPWTHPDQSQLFADLSREELTTVMSFLTQQLGPDLVDAAQARPSDNCVFSVELQLPPKAAALAHLDRGSPPPAREALAIVFFGGQPQPNVTELVVGPLPQPSYMRDVTVERHGGPLPYYRRPVLLREYLDIDQMIFNRELPQAAGVLHHCCSYKQGGQKLLTMNSAPRGVQSGDRSTWFGIYYNITKGGPYLHPVGLELLVDHKALDPADWTVQKVFFQGRYYENLAQLEEQFEAGQVNVVVIPDDGTGGFWSLKSQVPPGPTPPLQFHPQGPRFSVQGNRVASSLWTFSFGLGAFSGPRVFDVRFQGERLAYEISLQEAGAVYGGNTPAAMLTRYMDSGFGMGYFATPLIRGVDCPYLATYMDWHFVVESQTPKTLHDAFCVFEQNKGLPLRRHHSDFLSHYFGGVAQTVLVFRSVSTMLNYDYVWDMVFYPNGAIEVKLHATGYISSAFLFGAARRYGNQVGEHTLGPVHTHSAHYKVDLDVGGLENWVWAEDMAFVPTAIPWSPEHQIQRLQVTRKQLETEEQAAFPLGGASPRYLYLASKQSNKWGHPRGYRIQTVSFAGGPMPQNSPMERAFSWGRYQLAITQRKETEPSSSSVFNQNDPWTPTVDFSDFINNETIAGKDLVAWVTAGFLHIPHAEDIPNTVTVGNGVGFFLRPYNFFDQEPSMDSADSIYFREGQDAGSCEINPLACLPQAATCAPDLPVFSHGGYPEY", "values": [
      {"measurement": "Km", "setting": "[1]", "value": "0.74±0.15", "unit": "mM mM"},
      {"measurement": "kcat", "setting": "[1]", "value": "1.15 ± 0.06", "unit": "s⁻¹"},
      {"measurement": "kcat/Km", "setting": "[1]", "value": 1550, "unit": "M⁻¹ s⁻¹"},
      {"measurement": "Km", "setting": "[2]", "value": "1.77±0.24", "unit": "mM mM"},
      {"measurement": "kcat", "setting": "[2]", "value": "1.23 ± 0.06", "unit": "s⁻¹"},
      {"measurement": "kcat/Km", "setting": "[2]", "value": 695, "unit": "M⁻¹ s⁻¹"}
    ]}
  ]
}
